What was measured:
[1] = biological target: T1, SBP-fused full-length phyA (Arabidopsis thaliana, UniProt P14712 1-1122, chromophore-bound (phycocyanobilin, PCB)); test: pull-down
T1 sequence: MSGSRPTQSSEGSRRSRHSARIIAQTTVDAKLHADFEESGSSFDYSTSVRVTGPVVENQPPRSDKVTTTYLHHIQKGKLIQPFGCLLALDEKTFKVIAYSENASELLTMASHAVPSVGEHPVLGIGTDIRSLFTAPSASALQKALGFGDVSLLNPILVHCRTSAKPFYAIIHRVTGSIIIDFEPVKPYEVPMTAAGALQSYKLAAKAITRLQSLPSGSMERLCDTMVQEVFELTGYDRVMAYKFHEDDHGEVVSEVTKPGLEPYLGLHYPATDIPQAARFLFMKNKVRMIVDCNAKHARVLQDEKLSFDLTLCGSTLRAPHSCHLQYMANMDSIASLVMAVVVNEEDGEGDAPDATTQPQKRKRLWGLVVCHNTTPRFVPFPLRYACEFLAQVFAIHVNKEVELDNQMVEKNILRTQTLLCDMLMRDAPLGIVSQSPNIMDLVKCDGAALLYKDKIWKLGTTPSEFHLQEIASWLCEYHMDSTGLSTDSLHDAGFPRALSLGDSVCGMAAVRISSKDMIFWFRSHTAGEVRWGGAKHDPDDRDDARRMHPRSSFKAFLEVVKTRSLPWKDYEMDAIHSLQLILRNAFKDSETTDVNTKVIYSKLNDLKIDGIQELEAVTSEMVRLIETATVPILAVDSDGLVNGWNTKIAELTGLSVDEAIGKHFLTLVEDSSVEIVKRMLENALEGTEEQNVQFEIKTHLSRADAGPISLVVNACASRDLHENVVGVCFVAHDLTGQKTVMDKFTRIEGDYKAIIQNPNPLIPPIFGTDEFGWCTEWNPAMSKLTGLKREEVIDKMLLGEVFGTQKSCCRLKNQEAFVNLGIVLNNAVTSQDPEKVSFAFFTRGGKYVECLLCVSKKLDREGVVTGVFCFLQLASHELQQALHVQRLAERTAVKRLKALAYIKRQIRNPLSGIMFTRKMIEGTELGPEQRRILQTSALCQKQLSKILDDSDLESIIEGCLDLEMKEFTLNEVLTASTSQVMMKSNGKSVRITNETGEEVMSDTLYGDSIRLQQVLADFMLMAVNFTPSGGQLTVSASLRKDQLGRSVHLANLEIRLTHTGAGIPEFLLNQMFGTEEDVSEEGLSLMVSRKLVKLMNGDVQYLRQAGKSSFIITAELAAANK

[2] = biological target: T2, SBP-fused phyB^PSM (Arabidopsis thaliana, UniProt P14713 1-652, chromophore-bound (phycocyanobilin, PCB)); test: pull-down
T2 sequence: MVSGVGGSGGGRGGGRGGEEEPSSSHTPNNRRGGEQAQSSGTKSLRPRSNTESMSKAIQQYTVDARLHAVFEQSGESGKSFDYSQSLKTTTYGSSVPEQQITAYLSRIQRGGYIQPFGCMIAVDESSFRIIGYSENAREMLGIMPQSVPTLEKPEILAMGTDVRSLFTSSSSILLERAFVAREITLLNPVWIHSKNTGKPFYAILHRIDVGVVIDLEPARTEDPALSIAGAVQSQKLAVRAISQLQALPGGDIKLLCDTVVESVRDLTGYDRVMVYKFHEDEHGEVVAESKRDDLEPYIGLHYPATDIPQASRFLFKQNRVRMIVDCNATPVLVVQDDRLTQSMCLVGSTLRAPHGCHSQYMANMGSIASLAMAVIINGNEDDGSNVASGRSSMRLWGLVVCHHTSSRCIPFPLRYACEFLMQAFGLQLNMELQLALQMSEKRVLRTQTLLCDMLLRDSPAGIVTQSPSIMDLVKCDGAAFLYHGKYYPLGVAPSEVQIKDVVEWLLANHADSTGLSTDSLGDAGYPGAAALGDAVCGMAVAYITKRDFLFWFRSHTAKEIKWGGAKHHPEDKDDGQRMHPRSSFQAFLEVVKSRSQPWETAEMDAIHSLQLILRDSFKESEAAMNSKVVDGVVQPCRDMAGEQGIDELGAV

B1: GST-PIF3 (natural protein)
chain: MPLFELFRLTKAKLESAQDRNPSPPVDEVVELVWENGQISTQSQSSRSRNIPPPQANSSRAREIGNGSKTTMVDEIPMSVPSLMTGLSQDDDFVPWLNHHPSLDGYCSDFLRDVSSPVTVNEQESDMAVNQTAFPLFQRRKDGNESAPAASSSQYNGFQSHSLYGSDRARDLPSQQTNPDRFTQTQEPLITSNKPSLVNFSHFLRPATFAKTTNNNLHDTKEKSPQSPPNVFQTRVLGAKDSEDKVLNESVASATPKDNQKACLISEDSCRKDQESEKAVVCSSVGSGNSLDGPSESPSLSLKRKHSNIQDIDCHSEDVEEESGDGRKEAGPSRTGLGSKRSRSAEVHNLSERRRRDRINEKMRALQELIPNCNKVDKASMLDEAIEYLKSLQLQVQIMSMASGYYLPPAVMFPPGMGHYPAAAAAMAMGMGMPYAMGLPDLSRGGSSVNHGPQFQVSGMQQQPVAMGIPRVSGGGIFAGSSTIGNGSTRDLSGSKDQTTTNNNSNLKPIKRKQGSSDQFCGSS
binding result [1]: binds
binding result [2]: binds

B2: GST-fused APB (PIF3 1-113 a.a.) (domain or fragment)
chain: MPLFELFRLTKAKLESAQDRNPSPPVDEVVELVWENGQISTQSQSSRSRNIPPPQANSSRAREIGNGSKTTMVDEIPMSVPSLMTGLSQDDDFVPWLNHHPSLDGYCSDFLRD
binding result [2]: binds
